Measurements: publication PMC10539308, “Acetylation reprograms MITF target selectivity and residence time”

Experiments:
[1] = biological target: Ac-K206 MITF DBD (Homo sapiens) (UniProt O75030); assay: fluorescence anisotropy; details: 10 mM Tris/HCl pH 7.5, 300 mM NaCl, 0.01% Triton X-100, 0.1 mg/mL BSA, 25 C, 5 min, 1.33 nM dsDNA, quadratic fit, n=3
MITF DBD WT [2] = biological target: T1, MITF DBD WT (UniProt Q08874 287-403); assay: fluorescence anisotropy; moderately reduced vs CLEAR-box; 10 mM Tris/HCl pH 7.5, 300 mM NaCl, 0.01% Triton X-100, 0.1 mg/mL BSA, 25 C, 5 min, 1.33 nM dsDNA; quadratic fit, n=3; details: protein: recombinant; tags: His (Ni-NTA purified; pETM-11); chain copies: 2; label: 3' fluorescein on strand 1; blunt (annealed with complementary oligonucleotide)
T1 sequence (Q08874 287-403): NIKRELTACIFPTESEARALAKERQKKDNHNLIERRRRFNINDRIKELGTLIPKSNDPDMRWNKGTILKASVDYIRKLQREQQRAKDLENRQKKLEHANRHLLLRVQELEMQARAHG

MITF DBD WT [3] = biological target: T1, MITF DBD WT; assay: fluorescence anisotropy; 10 mM Tris/HCl pH 7.5, 300 mM NaCl, 0.01% Triton X-100, 0.1 mg/mL BSA, 25 C, 5 min, 1.33 nM dsDNA; quadratic fit, n=3; details: protein: recombinant; tags: His (Ni-NTA purified; pETM-11); chain copies: 2; label: 3' fluorescein on strand 1; blunt (annealed with complementary oligonucleotide)

Chain of Ac-K206 MITF DBD (Homo sapiens) (O75030 whole entry): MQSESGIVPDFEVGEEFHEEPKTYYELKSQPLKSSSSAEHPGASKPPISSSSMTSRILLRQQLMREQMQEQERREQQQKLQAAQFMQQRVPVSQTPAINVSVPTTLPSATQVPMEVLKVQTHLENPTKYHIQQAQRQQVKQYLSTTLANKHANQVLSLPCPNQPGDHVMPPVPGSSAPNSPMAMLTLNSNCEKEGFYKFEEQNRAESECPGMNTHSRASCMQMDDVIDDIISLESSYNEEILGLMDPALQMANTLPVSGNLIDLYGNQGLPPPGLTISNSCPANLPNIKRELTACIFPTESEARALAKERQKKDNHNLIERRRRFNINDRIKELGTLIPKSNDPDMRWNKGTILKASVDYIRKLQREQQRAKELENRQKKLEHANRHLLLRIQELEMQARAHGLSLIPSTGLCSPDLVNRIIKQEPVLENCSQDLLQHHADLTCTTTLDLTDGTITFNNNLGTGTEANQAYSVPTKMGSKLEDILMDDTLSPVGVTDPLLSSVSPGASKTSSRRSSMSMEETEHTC

## GAGATCATGTGTTGAC (double strand) [M-box]
[1]
  binding signal (fold reduced vs Ac-K206 on CLEAR-box): 20

## GAGATCACGTGATGAC (double strand) [CLEAR-box]
[1]
  binding signal (fold reduced vs WT on CLEAR-box): 3

## GAGATCATGTGATGAC (double strand) [TYR enhancer]
[1]; scale: fold further reduced vs Ac-K206 on CLEAR-box
  binding signal: 5

B1: TYR enhancer (dsDNA)
DNA 1: GAGATCATGTGATGAC
DNA 2: GTCATCACATGATCTC
MITF DBD WT [2]
  binding result: binds

B2: CLEAR-box (dsDNA)
DNA 1: GAGATCACGTGATGAC
DNA 2: GTCATCACGTGATCTC
MITF DBD WT [3]
  binding result: binds
